Data reported in patent publication US20140328853A1.
Read-outs that look alike come from different tables or passages of the source.

Tests used:
[1] = target: ADM (human or mouse not told for the control row of Table 3); assay: cell-based or functional assay
[2] = target: human recombinant adrenomedullin receptor (CRLR+RAMP3) (human)
[3] = target: human recombinant adrenomedullin receptor (CRLR+RAMP3) (human); remark: listed apart in the source

Row | Maximal inhibition of ADM bioactivity (ADM-Bioassay) (%) [1] [%] | IC50 (read off the curve) [2] [nM] | IC50 (read off the curve) [3] [nM] | Substance
1 | 0 |  |  | Non specific mouse IgG (antibody)
2 |  | 200 | 3000 | hADM 22-52 (on the sheet: antagonist) (peptide)
